This is an account of results in US20250270343A1 (Alector, published 2025).

The chains are these.
B1: anti-GPNMB antibody GPN-38 (antibody, human IgG1, V domains shown)
VH: QVQLQQPGAELVRPGTSVRLSCKASGYTFTSYWIHWVKQRPGRGLEWIGVIDPSDSYTNYNQQFNVKATLTVDTSSSAAYMQLSSLTSEDSAVYYCARGLITAVNWYFDVWGTGTTVTVSS
VL: DIQMTQSPASLSTSVGEIVTITCRASENIYSYLTWYQQKQGKSPQLLVYNAKTLAEGVPSRFSGSGSGTQFSLKINSLQPEDFGTYYCQHHYGTPLTFGSGTKLEIK
notes: chimeric
B2: anti-GPNMB antibody GPN-42 (antibody, human IgG1, V domains shown)
VH: DVKLVESGEDLVKPGGSLKLSCAASGFTFSSYAMSWVRQTPEKRLEWVAYISSGGDYIYYADTVKGRFTISRDNARNTLYLQMSSLKSEDTAMYYCTRDRYYDYDVRDYYTMDYWGQGTSVTVSS
VL: DVMMTQTPLSLPVSLGDQASISCRSSQSLVHSNGNTYLHWFLQKPGQSPKLLIFRVSNRFSGVPDRFSGRGSGTDFTLKISRVEAEDLGVYFCSQTTHVPRTFGGGTTLEIK
notes: chimeric
B3: anti-GPNMB antibody GPN-43 (antibody, human IgG1, V domains shown)
VH: EVQLQQSGPELVKPGASVKISCKASGYTFTDYYMNWVRQSHGKSLEWIGDINPYHGGSTYNQKIKVKATLTVDKSSSTAYMELRSLTSEDSAVYYCARNWPYFDYWGQGTTLTVSS
VL: DIQMTQSPASLSASVGETVTITCRASENIYSFLVWYQQKQGKSPQLLVYNAKTLAEGVPSRFSGSGSGTQFSLKISSLQPEDFGSYYCQHHFGTPPYTFGGGTKLEIK
notes: chimeric
B4: anti-GPNMB antibody GPN-41 (antibody, human IgG1, V domains shown)
VH: QLQLQQSGTEVVKPGASVKIPCKASGYAFSSYWMNWVKQRPGKGLEWIGQIYPGDGDTNDNGKFEGKATLTVDKSSNTAYIQLSSLTSEDSAVYFCARSPLHLRGSMDYWGQGTSVTVSS
VL: SIVMTQTPKFLLVSAGDRVTITCKASQSVSNDVAWFQQKPGQSPELLIYSASNRYTGVPDRFTASGYGTDFTFTISAVQAEDLAVYFCQQNYYSPFTFGGGTRLEIK
notes: chimeric
B5: anti-GPNMB antibody GPN-65 (antibody, human IgG1, V domains shown)
VH: B4 VH
VL: B4 VL with A64G, A77T
notes: chimeric
B6: anti-GPNMB antibody GPN-48 (antibody, human IgG1, V domains shown)
VH: QVQLQQSGPELVKPGASVKLSCRASGYGFSSFWMNWVKQRPGKGLEWIGRIYPGKGDTLYNGKFKDKATLTADESSSTAYMQLSSLTSEDSAVYFCARSIYYYDYWYFDVWDTGTTVTVSS
VL: DIVMTQSHKFMSTSVGDRVNITCKASQDVNSAIAWYQQKPGQSPKLLIYSASYRFIGVPDRFTGSGSGTGFTFTISSVQAEDLAVYYCQQHYTTPLTFGAGTKLELK
notes: chimeric

Changes are numbered by the printed parent chain.

This assay concerns the target T1, soluble cynomolgus GPNMB (recombinant extracellular domain) (cynomolgus, UniProt Q14956 23-499 (human entry), limits assumed).
T1 chain: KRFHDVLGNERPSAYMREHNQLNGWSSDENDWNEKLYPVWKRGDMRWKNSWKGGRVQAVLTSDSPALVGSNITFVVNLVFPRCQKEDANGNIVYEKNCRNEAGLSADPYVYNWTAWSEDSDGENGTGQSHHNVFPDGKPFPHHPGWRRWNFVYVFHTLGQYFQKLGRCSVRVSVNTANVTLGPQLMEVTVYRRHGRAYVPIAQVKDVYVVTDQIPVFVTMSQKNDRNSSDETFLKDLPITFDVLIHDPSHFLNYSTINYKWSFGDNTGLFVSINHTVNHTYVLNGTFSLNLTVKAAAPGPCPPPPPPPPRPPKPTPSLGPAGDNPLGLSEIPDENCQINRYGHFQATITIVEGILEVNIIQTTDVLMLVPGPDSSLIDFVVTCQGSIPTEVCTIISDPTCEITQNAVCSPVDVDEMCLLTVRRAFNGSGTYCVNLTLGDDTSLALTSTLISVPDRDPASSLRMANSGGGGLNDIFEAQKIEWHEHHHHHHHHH
Briefly: SPR binding. The protocol: Binding kinetics of human anti-GPNMB IgG1 antibodies of the present disclosure to human, cynomolgus, and mouse GPNMB were evaluated using a Carterra LSA instrument (Carterra, Salt Lake City, UT). […] A HC200M sensor chip (Carterra) was activated using the single channel flow cell with a 7-minute injection of a 1:1:1 mixture of 100 mM MES pH 5.5, 100 mM sulfo-NHS, 400 mM EDC (all reconstituted in MES pH 5.5; 100 μl of each mixed in vial immediately before running assay). After switching to the multi-channel array flow cell, the antibodies were injected over the activated chip in a 96-spot array for 15 minutes. The remaining unconjugated active groups on the chip were then blocked by injecting 1M Ethanolamine pH 8.5 (Carterra) for 7 minutes using the single channel flow cell.
After priming with running buffer (HBS-EP+, Teknova) with 0.5 mg/ml BSA (Sigma), the immobilized anti-GPNMB antibodies were tested for their ability to bind to several forms of recombinant GPNMB extracellular domain, including human, cynomolgus, and mouse orthologs as described above. Estimates of affinity were generated by injecting each analyte over the entire antibody array using the single channel flow cell. GPNMB analytes were diluted to 2.5, 7.4, 22, 67, 200, and 600 nM in running buffer, and injected in serial from lowest to highest concentration without regeneration. Two buffer blanks were run between each series (one species per series). Data were processed and analyzed using Kinetics high-throughput kinetics analysis software (Carterra).
(SPR reads the build-up and loss of mass on a sensor chip optically.)
In the case of B1, the binding result is “binds”.
With B2, the binding result is given as “binds”.
With B3 the entry was “binds”.
B4: the binding result is given as “binds”.
In the case of B5 it was “binds”; in that of B6, “binds”.
